The target of data set [1] is T1, RPA-CDE-core (human, UniProt P27694;P15927;P35244 436-616;43-171;1-121). In words: competition; FP, 0-10 uM unlabeled vs 60 nM FAM-Comp; FP: 0.060 uM FAM-oligo, 10-1500 mM NaCl, room temperature; CD: Buffer A 25 mM Tris pH 7.5, 2 mM MgCl2, 6% glycerol, 1 mM DTT, 100 (or 10) mM NaCl, room temperature. To be noted: protein: recombinant; tags: N-terminal His, thrombin-cleaved; copies: 1;1;1.

The target of data set [2] is T2, RPA (full-length heterotrimer RPA1/RPA2/RPA3) (human, UniProt P27694;P15927;P35244 1-616;1-270;1-121). The data set is described as above. The settings on record: protein: recombinant; copies: 1;1;1.
In data set [3] the target is T3, RPA-DE (human, UniProt P15927;P35244 43-171;1-121). Briefly: CD titration; 10 mM NaCl; stabilizes antiparallel G4; FP: 0.060 uM FAM-oligo, 10-1500 mM NaCl, room temperature; CD: Buffer A 25 mM Tris pH 7.5, 2 mM MgCl2, 6% glycerol, 1 mM DTT, 100 (or 10) mM NaCl, room temperature. To be noted: protein: recombinant; tags: N-terminal His, thrombin-cleaved; copies: 1;1; intramolecular G4.

For data set [4], the target named is T1, RPA-CDE-core. In words: CD titration; 100 mM NaCl; unfolds G4, complete at protein:DNA 2; FP: 0.060 uM FAM-oligo, 10-1500 mM NaCl, room temperature; CD: Buffer A 25 mM Tris pH 7.5, 2 mM MgCl2, 6% glycerol, 1 mM DTT, 100 (or 10) mM NaCl, room temperature. The settings on record: protein: recombinant; tags: N-terminal His, thrombin-cleaved; copies: 1;1;1; intramolecular G4.

The target of data set [5] is T4, RPA-C (human, UniProt P27694 432-595, V435T;W442Q;V465T;V469T;F523S;F567S;I571T). In words: CD titration; 10 mM NaCl; 254 nm peak decreases, 292 nm unchanged; FP: 0.060 uM FAM-oligo, 10-1500 mM NaCl, room temperature; CD: Buffer A 25 mM Tris pH 7.5, 2 mM MgCl2, 6% glycerol, 1 mM DTT, 100 (or 10) mM NaCl, room temperature. To be noted: protein: recombinant; tags: N-terminal His, thrombin-cleaved; intramolecular G4.

The target in data set [6] is T5, RPA-AB (human, UniProt P27694 181-441). Briefly: FP; 500 mM NaCl; FP: 0.060 uM FAM-oligo, 10-1500 mM NaCl, room temperature; CD: Buffer A 25 mM Tris pH 7.5, 2 mM MgCl2, 6% glycerol, 1 mM DTT, 100 (or 10) mM NaCl, room temperature. The settings on record: protein: recombinant; tags: N-terminal His6, thrombin-cleaved; label: 5' 6-FAM.
For data set [7], the target named is T1, RPA-CDE-core. The data set is described as above. The settings on record: protein: recombinant; tags: N-terminal His, thrombin-cleaved; copies: 1;1;1; label: 5' 6-FAM.
Data set [8] concerns the target T2, RPA (full-length heterotrimer …). Briefly: FP; 500 mM NaCl; stoichiometric; FP: 0.060 uM FAM-oligo, 10-1500 mM NaCl, room temperature; CD: Buffer A 25 mM Tris pH 7.5, 2 mM MgCl2, 6% glycerol, 1 mM DTT, 100 (or 10) mM NaCl, room temperature. Set-up: unit not given here. The settings on record: protein: recombinant; copies: 1;1;1; label: 5' 6-FAM.
Data set [9] has as its target T4, RPA-C. In words: FP; 10 mM NaCl; FP: 0.060 uM FAM-oligo, 10-1500 mM NaCl, room temperature; CD: Buffer A 25 mM Tris pH 7.5, 2 mM MgCl2, 6% glycerol, 1 mM DTT, 100 (or 10) mM NaCl, room temperature. The settings on record: protein: recombinant; tags: N-terminal His, thrombin-cleaved; label: 5' 6-FAM. Set-up: unit not given here.
Data set [10] deals with T1, RPA-CDE-core. The data set is described as above. Details: unit not given here. The settings on record: protein: recombinant; tags: N-terminal His, thrombin-cleaved; copies: 1;1;1; label: 5' 6-FAM.
In data set [11] the target is T5, RPA-AB. Briefly: FP; 1500 mM NaCl; FP: 0.060 uM FAM-oligo, 10-1500 mM NaCl, room temperature; CD: Buffer A 25 mM Tris pH 7.5, 2 mM MgCl2, 6% glycerol, 1 mM DTT, 100 (or 10) mM NaCl, room temperature. Set-up: unit not given here. The settings on record: protein: recombinant; tags: N-terminal His6, thrombin-cleaved; label: 5' 6-FAM.
Data set [12] concerns the target T5, RPA-AB. Briefly: FP; 100 mM NaCl; FP: 0.060 uM FAM-oligo, 10-1500 mM NaCl, room temperature; CD: Buffer A 25 mM Tris pH 7.5, 2 mM MgCl2, 6% glycerol, 1 mM DTT, 100 (or 10) mM NaCl, room temperature. Set-up: unit not given here. The settings on record: protein: recombinant; tags: N-terminal His6, thrombin-cleaved; label: 5' 6-FAM.
The target of data set [13] is T1, RPA-CDE-core. Described as above. Details: unit not given here. To be noted: protein: recombinant; tags: N-terminal His, thrombin-cleaved; copies: 1;1;1; label: 5' 6-FAM.
Data set [14] addresses T3, RPA-DE. Briefly: FP; 10 mM NaCl; FP: 0.060 uM FAM-oligo, 10-1500 mM NaCl, room temperature; CD: Buffer A 25 mM Tris pH 7.5, 2 mM MgCl2, 6% glycerol, 1 mM DTT, 100 (or 10) mM NaCl, room temperature. To be noted: protein: recombinant; tags: N-terminal His, thrombin-cleaved; copies: 1;1; label: 5' 6-FAM.
Data set [15] addresses T5, RPA-AB. Briefly: FP; 1250 mM NaCl; FP: 0.060 uM FAM-oligo, 10-1500 mM NaCl, room temperature; CD: Buffer A 25 mM Tris pH 7.5, 2 mM MgCl2, 6% glycerol, 1 mM DTT, 100 (or 10) mM NaCl, room temperature. Set-up: unit not given here. The settings on record: protein: recombinant; tags: N-terminal His6, thrombin-cleaved; label: 5' 6-FAM.
In data set [16] the target is T1, RPA-CDE-core. The description is as above. Details: unit not given here. To be noted: protein: recombinant; tags: N-terminal His, thrombin-cleaved; copies: 1;1;1; label: 5' 6-FAM.
Data set [17] deals with T2, RPA (full-length heterotrimer …). Briefly: FP; 500 mM NaCl; FP: 0.060 uM FAM-oligo, 10-1500 mM NaCl, room temperature; CD: Buffer A 25 mM Tris pH 7.5, 2 mM MgCl2, 6% glycerol, 1 mM DTT, 100 (or 10) mM NaCl, room temperature. The settings on record: protein: recombinant; copies: 1;1;1; label: 5' 6-FAM.
For data set [18], the target named is T4, RPA-C. In words: FP; 10 mM NaCl; FP: 0.060 uM FAM-oligo, 10-1500 mM NaCl, room temperature; CD: Buffer A 25 mM Tris pH 7.5, 2 mM MgCl2, 6% glycerol, 1 mM DTT, 100 (or 10) mM NaCl, room temperature. The settings on record: protein: recombinant; tags: N-terminal His, thrombin-cleaved; label: 5' 6-FAM.

This passage reports binding result and Kd results from article PMC3136212, “Identification of the DNA-Binding Domains of Human Replication Protein A That Recognize G-Quadruplex DNA”.

T5 sequence (P27694 181-441): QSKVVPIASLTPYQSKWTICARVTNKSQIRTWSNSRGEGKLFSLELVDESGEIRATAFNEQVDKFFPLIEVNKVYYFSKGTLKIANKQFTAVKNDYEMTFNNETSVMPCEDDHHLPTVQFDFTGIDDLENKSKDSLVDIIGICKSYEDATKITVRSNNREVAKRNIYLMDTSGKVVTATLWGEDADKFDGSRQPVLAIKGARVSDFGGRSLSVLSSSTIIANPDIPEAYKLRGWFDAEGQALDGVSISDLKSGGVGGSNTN
T2 sequence (P27694 whole entry, chain 1 of 3): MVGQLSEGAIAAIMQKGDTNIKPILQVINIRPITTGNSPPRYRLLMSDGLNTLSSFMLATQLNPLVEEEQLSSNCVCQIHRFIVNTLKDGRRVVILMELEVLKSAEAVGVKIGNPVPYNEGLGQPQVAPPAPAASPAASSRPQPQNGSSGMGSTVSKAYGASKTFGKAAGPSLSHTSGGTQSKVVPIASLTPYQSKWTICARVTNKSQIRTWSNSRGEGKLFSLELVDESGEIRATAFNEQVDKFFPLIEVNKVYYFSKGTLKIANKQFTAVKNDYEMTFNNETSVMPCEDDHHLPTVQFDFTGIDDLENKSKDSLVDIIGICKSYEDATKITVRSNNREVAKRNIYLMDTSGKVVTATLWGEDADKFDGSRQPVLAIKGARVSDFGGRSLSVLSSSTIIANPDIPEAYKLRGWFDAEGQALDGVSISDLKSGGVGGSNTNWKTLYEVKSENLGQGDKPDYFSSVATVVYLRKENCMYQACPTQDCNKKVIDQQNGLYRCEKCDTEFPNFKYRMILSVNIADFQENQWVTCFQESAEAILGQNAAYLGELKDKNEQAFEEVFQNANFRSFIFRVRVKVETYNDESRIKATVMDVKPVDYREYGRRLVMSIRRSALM
T2 sequence (P15927 whole entry, chain 2 of 3): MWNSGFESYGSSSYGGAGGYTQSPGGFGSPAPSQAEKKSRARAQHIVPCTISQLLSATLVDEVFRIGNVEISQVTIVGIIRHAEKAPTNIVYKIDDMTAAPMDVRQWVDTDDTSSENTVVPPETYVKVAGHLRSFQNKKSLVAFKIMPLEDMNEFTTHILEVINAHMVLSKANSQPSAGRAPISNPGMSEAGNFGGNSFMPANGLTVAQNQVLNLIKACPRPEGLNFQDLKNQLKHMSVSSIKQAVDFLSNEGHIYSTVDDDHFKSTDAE
T2 sequence (P35244 whole entry, chain 3 of 3): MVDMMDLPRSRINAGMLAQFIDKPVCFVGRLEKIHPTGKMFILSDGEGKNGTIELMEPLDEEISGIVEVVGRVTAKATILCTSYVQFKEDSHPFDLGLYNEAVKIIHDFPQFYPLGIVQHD
T1 sequence (P27694 436-616, chain 1 of 3): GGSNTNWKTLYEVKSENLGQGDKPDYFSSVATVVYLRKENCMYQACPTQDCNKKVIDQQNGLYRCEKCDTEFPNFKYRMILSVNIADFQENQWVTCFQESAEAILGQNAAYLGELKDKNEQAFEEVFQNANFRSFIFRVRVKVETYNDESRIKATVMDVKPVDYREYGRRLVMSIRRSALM
T1 sequence (P15927 43-171, chain 2 of 3): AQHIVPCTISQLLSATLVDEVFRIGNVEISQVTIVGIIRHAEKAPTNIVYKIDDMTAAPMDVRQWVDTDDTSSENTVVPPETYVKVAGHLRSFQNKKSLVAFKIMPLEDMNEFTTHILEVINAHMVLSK
T1 sequence (P35244 whole entry, chain 3 of 3): as the sequence (P35244 whole entry, chain 3 of 3) above
T4 sequence (P27694 432-595 V435T/W442Q/V465T/V469T/F523S/F567S/I571T): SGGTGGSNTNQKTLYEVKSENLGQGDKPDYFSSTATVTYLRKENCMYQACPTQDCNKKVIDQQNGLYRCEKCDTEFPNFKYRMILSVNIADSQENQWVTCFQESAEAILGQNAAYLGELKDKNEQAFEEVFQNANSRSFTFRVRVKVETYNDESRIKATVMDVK
T3 sequence (P15927 43-171, chain 1 of 2): as the sequence (P15927 43-171, chain 2 of 3) above
T3 sequence (P35244 whole entry, chain 2 of 2): as the sequence (P35244 whole entry, chain 3 of 3) above

On to ATCCCCTTCCCAACCTCACCCAA (ssDNA) [Comp competitor (unlabeled)], for which the binding result (with RPA-CDE-core [1]; in data set [2]) was “binds” throughout.
In the case of TAGGGGAAGGGTTGGAGTGGGTT (structured_DNA) [Gq23 (CD, unlabeled)], the binding result with RPA-DE [3], in the data set with RPA-CDE-core [4] and with RPA-C [5] was “binds” in each case.
Regarding ATCCCCTTCCCAACCTCACCCAA (ssDNA, 18-carbon spacer (sp18) at 5' end) [Anti (Comp)], the Kd in the data set with RPA-AB [6] was 1.79; in the data set with RPA-CDE-core [7] it was 0.75; in data set [8], roughly 0.06; with RPA-C [9] it was 3.32; in the data set with RPA-CDE-core [10], 0.22; with RPA-AB [11] it was 2.45. Also, the Kd in the data set with RPA-AB [12] came to 0.66; in the data set with RPA-CDE-core [13], 0.42; with RPA-AB [15], 2.65; with RPA-CDE-core [16], 2.81. Besides, the binding result with RPA-DE [14] is listed as “no binding”.
With AAAAAAAAAAAAAAAAAAAAAAA (ssDNA, 18-carbon spacer (sp18) at 5' end) [polyA], the Kd came out at 0.17 in data set [17], 0.53 in the data set with RPA-CDE-core [10], 1.83 with RPA-AB [12] and 5.88 in the data set with RPA-CDE-core [13]. Also, the binding result with RPA-C [18] and with RPA-DE [14] was “no binding” each time.
